In US20240368655:

Molecular target: Concanavalin A (UniProt P02866)
Test: SELEX
Details: FANA copy of the listed DNA template; every U is C8-alkyne-FANA U conjugated to 2-azidoethyl-alpha-D-mannose; displayed on its encoding dsDNA; round 3 recovery by qPCR; round 1 about 0.14%; PBS, 2.5 mM MgCl2, 1 mM CaCl2, 0.1 mM MnCl2, 0.01% Tween 20, room temperature

Sequence “CCTATAGCCGTTTGCACAAGNNNNNNNNNNNNNNNNNNNNNNNNNNNNNNNNNNNNNNNNCCCGTACCCGTTAAGATTACTTCGGACTGGGATC [Man-cmFANA N40 library, round 3]” has a binding of 47 % recovery.
